Assay [1] addresses Human serum albumin (HSA) (human) (UniProt P02768). Description: bridging ELISA after sample preparation, plate coated with 20 µg/mL HSA, antibody in neat human serum. (In general: ELISA stands for enzyme-linked immunosorbent assay.)
Assay [2] shares this target. The assay can be described thus: competitive indirect ELISA, antibody in buffer captured on Protein A/G plate, HRP-conjugated HSA detection.
For assay [3] the target is unchanged. The assay can be described thus: competitive indirect ELISA, antibody in neat human serum, mixed with HRP-conjugated HSA, then Protein A/G plate.
Assay [4] shares this target. The assay can be described thus: competitive indirect ELISA, antibody in 1% pooled normal human serum preincubated with HRP-conjugated HSA, then Protein A/G plate.
For assay [5] the target is unchanged. The assay can be described thus: bridging ELISA (HSA on plate, biotin-HSA in solution), antibody spiked in normal human serum, after Protein A/G enrichment and acid elution.

The text below walks through data of US20130203616A1.

On to Rabbit anti-HSA antibody, ABCAM ab31657, for which the limit of detection in assay [1] is 250 ng/mL. In addition, the lowest antibody concentration detected in assay [2] was determined as 0.48 ng/mL. The assay sensitivity in assay [3] amounted to 10 µg/mL. The detection limit in assay [4] stood at 3 µg/mL; in assay [5] it was 125 ng/mL.
